# T1: deoxyhypusine synthase Y250A, His-tagged (human, UniProt P49366 1-369, Y250A, RED-tris-NTA 2nd Generation dye on the His tag)
# T1 construct: human deoxyhypusine synthase, Uniprot P49366, residues 1-369, site-directed mutant of the pET24d full-length construct; also called DHS Y250A; source: E. coli, purified; not shown: 6xHis, N-terminal, kept
# T1 sequence (looked up): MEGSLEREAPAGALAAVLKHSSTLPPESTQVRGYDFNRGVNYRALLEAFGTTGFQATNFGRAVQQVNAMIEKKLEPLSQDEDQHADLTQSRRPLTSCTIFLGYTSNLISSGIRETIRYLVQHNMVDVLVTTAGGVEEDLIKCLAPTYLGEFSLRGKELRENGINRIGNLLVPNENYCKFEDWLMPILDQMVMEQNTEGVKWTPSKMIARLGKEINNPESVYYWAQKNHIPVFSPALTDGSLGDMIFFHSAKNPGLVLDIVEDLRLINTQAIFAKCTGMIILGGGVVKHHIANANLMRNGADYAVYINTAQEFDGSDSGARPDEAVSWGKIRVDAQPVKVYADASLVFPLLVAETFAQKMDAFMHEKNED
# T2: deoxyhypusine synthase L295A, His-tagged (human, UniProt P49366 1-369, L295A, RED-tris-NTA 2nd Generation dye on the His tag)
# T2 construct: human deoxyhypusine synthase, Uniprot P49366, residues 1-369, site-directed mutant of the pET24d full-length construct; also called DHS L295A; source: E. coli, purified; not shown: 6xHis, N-terminal, kept
# T2 sequence (looked up): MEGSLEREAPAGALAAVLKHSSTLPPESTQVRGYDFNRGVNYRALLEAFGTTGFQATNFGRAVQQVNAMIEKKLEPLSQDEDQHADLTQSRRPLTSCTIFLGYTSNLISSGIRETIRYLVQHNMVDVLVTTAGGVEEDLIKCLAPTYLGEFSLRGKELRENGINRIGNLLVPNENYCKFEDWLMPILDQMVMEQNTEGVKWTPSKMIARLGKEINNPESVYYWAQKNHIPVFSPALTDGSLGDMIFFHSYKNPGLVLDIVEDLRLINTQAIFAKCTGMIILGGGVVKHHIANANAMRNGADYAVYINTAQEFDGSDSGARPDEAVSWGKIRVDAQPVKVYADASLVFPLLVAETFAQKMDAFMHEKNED
# T3: deoxyhypusine synthase E137A, His-tagged (human, UniProt P49366 1-369, E137A, RED-tris-NTA 2nd Generation dye on the His tag)
# T3 construct: human deoxyhypusine synthase, Uniprot P49366, residues 1-369, site-directed mutant of the pET24d full-length construct; also called DHS E137A; source: E. coli, purified; not shown: 6xHis, N-terminal, kept
# T3 sequence (looked up): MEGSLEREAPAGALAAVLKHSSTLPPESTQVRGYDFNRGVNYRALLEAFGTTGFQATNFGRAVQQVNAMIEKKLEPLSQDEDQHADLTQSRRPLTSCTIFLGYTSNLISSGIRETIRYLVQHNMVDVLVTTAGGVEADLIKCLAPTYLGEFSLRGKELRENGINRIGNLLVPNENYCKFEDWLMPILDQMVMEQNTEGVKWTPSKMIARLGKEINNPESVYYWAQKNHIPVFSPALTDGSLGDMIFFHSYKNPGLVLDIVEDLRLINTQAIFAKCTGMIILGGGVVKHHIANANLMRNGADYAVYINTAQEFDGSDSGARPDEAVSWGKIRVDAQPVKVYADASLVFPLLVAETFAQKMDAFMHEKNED
# T4: deoxyhypusine synthase M244A, His-tagged (human, UniProt P49366 1-369, M244A, RED-tris-NTA 2nd Generation dye on the His tag)
# T4 construct: human deoxyhypusine synthase, Uniprot P49366, residues 1-369, site-directed mutant of the pET24d full-length construct; also called DHS M244A; source: E. coli, purified; not shown: 6xHis, N-terminal, kept
# T4 sequence (looked up): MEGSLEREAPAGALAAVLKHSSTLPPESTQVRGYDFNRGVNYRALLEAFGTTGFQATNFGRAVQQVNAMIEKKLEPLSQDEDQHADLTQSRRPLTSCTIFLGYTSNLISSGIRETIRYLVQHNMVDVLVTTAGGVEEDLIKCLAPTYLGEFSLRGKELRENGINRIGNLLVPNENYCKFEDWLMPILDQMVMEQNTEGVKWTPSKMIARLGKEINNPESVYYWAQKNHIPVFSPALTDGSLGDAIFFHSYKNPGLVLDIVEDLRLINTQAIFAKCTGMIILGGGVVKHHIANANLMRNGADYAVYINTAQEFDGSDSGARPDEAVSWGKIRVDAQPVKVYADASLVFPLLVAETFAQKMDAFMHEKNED
# B1: eukaryotic translation factor 5A (eIF5A-1), residues 15-151 (domain or fragment)
# chain: not shown
# notes: human eIF5A1, residues 15-151, from pET28-MHL (Addgene); The purification protocol removes the tag with TEV; source: E. coli, purified (HisTrap, TEV cleavage, reverse HisTrap, SEC); not shown: His tag, N-terminal, cleaved
# Assays:
# Test in all cases: MST; His-tagged DHS variants labelled with RED-tris-NTA 2nd Generation, 8.32 nM; eIF5A titrated, sixteen dilutions 0.00175–57.5 μM; 50 mM Tris, 200 mM NaCl, 5 mM β-ME pH 8; Monolith NT.115, 40% excitation power, 60% MST power; no NAD or SPD
# Settings in all cases: both partners purified
# [1] = biological target: T1, deoxyhypusine synthase Y250A, His-tagged
# [2] = biological target: T2, deoxyhypusine synthase L295A, His-tagged
# [3] = biological target: T3, deoxyhypusine synthase E137A, His-tagged
# [4] = biological target: T4, deoxyhypusine synthase M244A, His-tagged
binder,measurement,setting,value
B1,Kd,[1],> 5000 nM
same,Kd,[2],393 ± 107 nM
same,Kd,[3],2550 ± 880 nM
same,Kd,[4],> 5000 nM
